Measured values from patent publication US20230272099A1 (Chugai, published 2023).

T1: human FcgRIIa type H extracellular domain (human, UniProt P12318 34-217)
T1 construct: extracellular domain; also called hFcgRIIaH
T1 sequence (looked up): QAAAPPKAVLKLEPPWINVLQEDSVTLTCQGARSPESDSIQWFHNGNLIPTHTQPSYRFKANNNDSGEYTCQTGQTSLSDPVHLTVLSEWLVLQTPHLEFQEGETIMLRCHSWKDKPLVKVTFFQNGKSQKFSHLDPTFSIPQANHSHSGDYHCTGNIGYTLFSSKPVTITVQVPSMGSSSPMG

T2: human FcgRIIa type R extracellular domain (human, UniProt P12318 34-217)
T2 construct: extracellular domain; also called hFcgRIIaR
T2 sequence (looked up): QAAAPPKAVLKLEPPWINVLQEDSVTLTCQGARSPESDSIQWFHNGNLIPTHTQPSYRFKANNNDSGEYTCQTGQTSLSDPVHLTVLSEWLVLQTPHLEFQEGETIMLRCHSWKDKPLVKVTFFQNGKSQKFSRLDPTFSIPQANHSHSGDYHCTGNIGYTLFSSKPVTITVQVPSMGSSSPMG

T3: human FcgRIIb extracellular domain (human, UniProt P31994 43-217)
T3 construct: extracellular domain; also called hFcgRIIb
T3 sequence (looked up): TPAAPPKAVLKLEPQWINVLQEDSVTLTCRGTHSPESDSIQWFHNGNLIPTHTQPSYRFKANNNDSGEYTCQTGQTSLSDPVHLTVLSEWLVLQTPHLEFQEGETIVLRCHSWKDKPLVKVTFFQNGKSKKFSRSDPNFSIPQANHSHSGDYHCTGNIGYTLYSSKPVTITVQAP


What was measured:
[1] = molecular target: T4, human FcgRIa extracellular domain (human, UniProt P12314 16-292); assay: SPR 25C
T4 construct: extracellular domain; also called hFcgRIa
Method: (§1) Biacore T200 (GE Healthcare) was used to evaluate the binding activity to the respective human Fcγ receptor (hereafter referred to as FcγR). Measurement was performed at 25° C. using 50 mM phosphate, 150 mM NaCl, 0.05 w/v %-P20, pH 7.4 as buffer. About 1000 RU of antibody was captured using a sensor chip immobilized with CaptureSelect™ Human Fab-lambda Kinetics Biotin Conjugate (Thermo Fisher Scientific) as a molecule for ligand capturing. Human FcγR was diluted to 8 nM for FcγRIa and 1000 nM for other FcγR in the measurement buffer, and it was interacted to the captured antibody. The binding activity of each antibody to FcγR was assessed by calculating the binding amount of FcγR (RU) per unit amount of antibody using Biacore T200 Evaluation Software 2.0.

[2] = molecular target: T1, human FcgRIIa type H extracellular …; assay: SPR 25C
Method: as §1

[3] = molecular target: T2, human FcgRIIa type R extracellular …; assay: SPR 25C
Method: as §1

[4] = molecular target: T3, human FcgRIIb extracellular domain; assay: SPR 25C
Method: as §1

[5] = molecular target: T5, human FcgRIIIa F158 extracellular domain (human, UniProt P08637 17-208); assay: SPR 25C
T5 construct: extracellular domain; also called hFcgRIIIaF
Method: as §1

[6] = molecular target: T6, human FcgRIIIa V158 extracellular domain (human, UniProt P08637 17-208); assay: SPR 25C
T6 construct: extracellular domain; also called hFcgRIIIaV
Method: as §1

human FcRn = human FcRn (human, UniProt P55899 24-290; P61769 21-119); assay: SPR 25C pH 6.0, steady state
Method: Biacore T200 (GE Healthcare) was used to assess the binding activity to human FcRn. Measurement was performed at 25° C. using 50 mM phosphate, 150 mM NaCl, 0.05 w/v %-P20, pH 6.0 as buffer. Human FcRn proteins used for this determination were prepared by the procedure described in WO2010107110. About 400 RU of antibody was captured using a sensor chip immobilized with CaptureSelect™ Human Fab-lambda Kinetics Biotin Conjugate (Thermo Fisher Scientific) as a molecule for ligand capturing, followed by the binding of human FcRn diluted in measuring buffer. The activity of the respective antibodies to bind FcRn was assessed by calculating KD(mol/L) by the steady-state model using Biacore T200 Evaluation Software 2.0.

T6 sequence (P08637 17-208 F176V): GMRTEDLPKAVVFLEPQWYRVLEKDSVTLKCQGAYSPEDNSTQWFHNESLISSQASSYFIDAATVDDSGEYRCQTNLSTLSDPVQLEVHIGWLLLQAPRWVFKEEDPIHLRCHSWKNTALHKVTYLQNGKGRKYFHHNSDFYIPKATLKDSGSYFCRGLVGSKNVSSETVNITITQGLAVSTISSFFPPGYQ
T5 sequence (P08637 17-208): as the sequence (P08637 17-208 F176V) above, with V160F counted along it
Sequence of human FcRn (P55899 24-290 limits assumed, chain 1 of 2): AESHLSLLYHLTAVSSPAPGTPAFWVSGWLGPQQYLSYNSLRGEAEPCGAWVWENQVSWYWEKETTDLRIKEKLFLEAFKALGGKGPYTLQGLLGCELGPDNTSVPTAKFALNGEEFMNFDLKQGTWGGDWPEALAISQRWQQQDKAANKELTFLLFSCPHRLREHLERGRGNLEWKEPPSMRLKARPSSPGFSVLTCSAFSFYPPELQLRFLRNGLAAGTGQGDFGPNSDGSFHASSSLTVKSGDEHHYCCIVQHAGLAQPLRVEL
Sequence of human FcRn (P61769 21-119 limits assumed, chain 2 of 2): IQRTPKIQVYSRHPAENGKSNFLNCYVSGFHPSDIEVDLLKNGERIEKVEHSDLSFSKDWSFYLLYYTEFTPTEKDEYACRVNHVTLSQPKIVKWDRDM
T4 sequence (P12314 16-292): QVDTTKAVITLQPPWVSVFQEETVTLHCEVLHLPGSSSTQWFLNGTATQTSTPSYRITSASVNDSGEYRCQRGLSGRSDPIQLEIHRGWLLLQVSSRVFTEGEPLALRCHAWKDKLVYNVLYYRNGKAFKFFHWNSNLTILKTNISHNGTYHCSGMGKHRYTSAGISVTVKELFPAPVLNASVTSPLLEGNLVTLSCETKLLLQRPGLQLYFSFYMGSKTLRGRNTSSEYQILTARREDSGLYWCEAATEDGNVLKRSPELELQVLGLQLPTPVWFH

Binder | binding per 1RU antibody [1] | relative binding (A375-G1T3/B167-Lamlib=1) [1] | binding per 1RU antibody [2] | relative binding (A375-G1T3/B167-Lamlib=1) [2] | binding per 1RU antibody [3] | relative binding (A375-G1T3/B167-Lamlib=1) [3] | binding per 1RU antibody [4] | relative binding (A375-G1T3/B167-Lamlib=1) [4] | binding per 1RU antibody [5] | relative binding (A375-G1T3/B167-Lamlib=1) [5] | binding per 1RU antibody [6] | relative binding (A375-G1T3/B167-Lamlib=1) [6] | Kd (human FcRn)
A375-G1T3/B167-Lamlib (antibody, human IgG1, lambda, copies: 2 + 2) heavy: not shown light: QSALTQPPSASGSPGQTVTISCTGTRYDVGYYEYVSWYQQHPGKAPKLMIYETSKRLSGVPDRFSGSKSGNTASLTVSGLQAEDEADYYCSSYRYEHQVSFGGGTKLTVLGQPKAAPSVTLFPPSSEELQANKATLVCLISDFYPGAVTVAWKADSSPVKAGVETTTPSKQSNNKYAASSYLSLTPEQWKSHRSYSCQVTHEGSTVEKTVAPTECS | 0.0813 RU | 1 | 0.0567 RU | 1 | 0.0463 RU | 1 | 0.011 RU | 1 | 0.0213 RU | 1 | 0.07 RU | 1 | 1270 nM
A375-MY201a/B167-Lamlib (antibody, human IgG1, lambda, copies: 2 + 2) heavy: EVQLVESGGGLVKPGGSLRLSCAASGFTFSTFTMNWVRQAPGKGLEWVSSISSKSTYIEYADSFKVRFTISRDNAKNSLYLQMNSLRAEDTAVYYCARYGAKNFLNWVFDYWGQGTLVTVSSASTKGPSVFPLAPSSKSTSGGTAALGCLVKDYFPEPVTVSWNSGALTSGVHTFPAVLQSSGLYSLSSVVTVPSSSLGTQTYICNVNHKPSNTKVDKRVEPKSCDKTHTCPPCPAPELLNGPSVFLFPPKPKDTLMISRTPEVTCVVVDVSDEDPEVKFNWYVDGVEVHNAKTKPREEQYNSTYRVVSVLTVLHQDWLNGKEYKCKVSNKALPKPIEKTISKAKGQPREPQVYTLPPSREEMTKNQVSLTCLVKGFYPSDIAVEWESNGQPENNYKTTPPVLDSDGSFFLYSKLTVDKSRWQQGNVFSCSVMHEALHNHYTQKSLSLSP light: QSALTQPPSASGSPGQTVTISCTGTRYDVGYYEYVSWYQQHPGKAPKLMIYETSKRLSGVPDRFSGSKSGNTASLTVSGLQAEDEADYYCSSYRYEHQVSFGGGTKLTVLGQPKAAPSVTLFPPSSEELQANKATLVCLISDFYPGAVTVAWKADSSPVKAGVETTTPSKQSNNKYAASSYLSLTPEQWKSHRSYSCQVTHEGSTVEKTVAPTECS | 0.0396 RU | 0.49 | 0.0534 RU | 0.94 | 0.0338 RU | 0.73 | 0.0401 RU | 3.66 | 0.0007 RU | 0.04 | 0.0024 RU | 0.03 | 1190 nM
A375-TT11/B167-Lamlib (antibody, human IgG1, lambda, copies: 2 + 2) heavy: EVQLVESGGGLVKPGGSLRLSCAASGFTFSTFTMNWVRQAPGKGLEWVSSISSKSTYIEYADSFKVRFTISRDNAKNSLYLQMNSLRAEDTAVYYCARYGAKNFLNWVFDYWGQGTLVTVSSASTKGPSVFPLAPSSKSTSGGTAALGCLVKDYFPEPVTVSWNSGALTSGVHTFPAVLQSSGLYSLSSVVTVPSSSLGTQTYICNVNHKPSNTKVDKKVEPKSCDKTHTCPPCPAPEYLGGDSVFLFPPKPKDVLMISRTPEVTCVVVDVSHEDPEVKFNWYVDGVEVHNAKTKPREEQYNSTYRVVSVLPVLHQDWLNGKEYKCKVSNKALPKPIEKTISKAKGQPREPQVYTLPPSREEMTKNQVSLTCLVKGFYPSDIAVEWESNGQPENNYKTTPPVLDSDGSFFLYSKLTVDKSRWQQGNVFSCSVMHEALHNHYTQKSLSLSP light: QSALTQPPSASGSPGQTVTISCTGTRYDVGYYEYVSWYQQHPGKAPKLMIYETSKRLSGVPDRFSGSKSGNTASLTVSGLQAEDEADYYCSSYRYEHQVSFGGGTKLTVLGQPKAAPSVTLFPPSSEELQANKATLVCLISDFYPGAVTVAWKADSSPVKAGVETTTPSKQSNNKYAASSYLSLTPEQWKSHRSYSCQVTHEGSTVEKTVAPTECS |  |  | 0.002 RU | 0.03 |  |  | 0.0477 RU | 4.35 | -0.0009 RU | -0.04 | -0.001 RU | -0.01 | 1560 nM
